Laboratory results: patent US20250026836A1 (UCB, published 2025)

Tests used:
[1] = biological target: T1, HLA-G wild type, membrane-bound, co-expressed with B2m on transfected cells (HEK293 / HCT116) (human, UniProt P17693 25-338; P61769 21-119); assay: flow cytometry on HEK293 cells transfected with HLA-G/B2m
T1 construct: Same construct transiently expressed on HEK293 (Expi293) or HCT116 cells; the cell line is named under assay; also called HLA-G WT; HEK-HLAG

[2] = biological target: HLA-C consensus sequence, co-expressed with B2m on HEK293 cells (human, UniProt P10321 25-366; P61769 21-119); assay: flow cytometry on HEK293 cells transfected with HLA-C consensus/B2m
[3] = biological target: HLA-A consensus sequence, co-expressed with B2m on HEK293 cells (human, UniProt P04439 25-365; P61769 21-119); assay: flow cytometry on HEK293 cells transfected with HLA-A consensus/B2m
[4] = biological target: T2, HLA-G naturally expressed on human choriocarcinoma trophoblastic JEG3 cells (human, UniProt P17693 25-338; P61769 21-119); assay: flow cytometry on JEG3 WT cells, IgG1 100-0.05 nM
T2 construct: whole, on cells; also called JEG3 WT

[5] = biological target: T2, HLA-G naturally expressed on human …; assay: flow cytometry, blocking of ILT2rbFc binding to JEG3 cells
[6] = biological target: HLA-B consensus sequence, co-expressed with B2m on HEK293 cells (human, UniProt P01889 25-362 at identity 0.96); P61769 21-119); assay: flow cytometry on HEK293 cells transfected with HLA-B consensus/B2m
[7] = biological target: T2, HLA-G naturally expressed on human …; assay: flow cytometry on JEG3 cells, 1.5 ml IgG solution, geometric mean of three independent assays; geometric mean of three independent assays
[8] = biological target: HLA-F consensus sequence, co-expressed with B2m on HEK293 cells (human, UniProt P30511 22-346; P61769 21-119); assay: flow cytometry on HEK293 cells transfected with HLA-F consensus/B2m
[9] = biological target: T1, HLA-G wild type, membrane-bound, …; assay: flow cytometry, blocking of ILT2rbFc binding to HLA-G/B2m HEK293 cells
[10] = biological target: human HLA-G and β2 microglobulin stably expressed on the HLAG-β2m-Reh cell line (human, UniProt P17693 25-338; P61769 21-119); assay: cell-based or functional assay
[11] = biological target: T1, HLA-G wild type, membrane-bound, …; assay: flow cytometry, blocking of ILT4rbFc binding to HLA-G/B2m HCT116 cells
[12] = biological target: HLA-E consensus sequence, co-expressed with B2m on HEK293 cells (human, UniProt P13747 22-358; P61769 21-119); assay: flow cytometry on HEK293 cells transfected with HLA-E consensus/B2m
[13] = biological target: T3, Human HLA-G ECD + B2m (soluble, AVItev10His tag) (human); assay: SPR, 25 C, hIgG1 captured via anti-human Fc, HLA-G ECD+B2m titrated from 50 nM, another assay
T3 construct: also called soluble HLA-G

[14] = biological target: T2, HLA-G naturally expressed on human …; assay: flow cytometry, blocking of ILT2rbFc binding to JEG3 cells, large volume
[15] = biological target: T3, Human HLA-G ECD + B2m (soluble, …); assay: SPR, 25 C, hIgG1 captured via anti-human Fc, HLA-G ECD+B2m 50 nM as analyte, second experiment
[16] = biological target: T3, Human HLA-G ECD + B2m (soluble, …); assay: SPR, 25 C, hIgG1 captured via anti-human Fc, HLA-G ECD+B2m 50 nM as analyte, first experiment
[17] = biological target: T2, HLA-G naturally expressed on human …; assay: flow cytometry on JEG3 cells, 1.5 ml IgG1 solution, 10-0.0005 nM
[18] = biological target: T3, Human HLA-G ECD + B2m (soluble, …); assay: SPR, 25 C, hIgG1 captured via anti-human Fc, HLA-G ECD+B2m titrated from 50 nM

EC50 [1]	binding result [2]	binding result [3]	EC50 [4]	IC50 [5]	binding result [6]	EC50 [7]	binding result [8]	IC50 [9]	EC50 (nM) of CDC, lot 1 [10]	EC50 (nM) of CDC, lot 2 [10]	EC50 (nM) of CDC, lot 3 [10]	IC50 [11]	binding result [12]	Kd [13]	IC50 [14]	Kd [15]	Kd [16]	Kd [17]	Kd [18]	Binder
0.92 nM	no binding (tested: IgG up to 100 nM)	no binding (tested: IgG up to 100 nM)	0.2 nM	0.51 nM	no binding (tested: IgG up to 100 nM)	0.021 nM	no binding (tested: IgG up to 100 nM)	0.83 nM	2.51 nM	3.29 nM	3.7 nM	1.38 nM	no binding (tested: IgG up to 100 nM)	4.4 nM	0.021 nM					Afucosylated HLA-G02 (antibody, human IgG1, kappa, afucosylated IgG1 (produced in FUT8 knock-out CHO-SXE cells), also called aF HLA-G02; Afucosylated HLA-02) heavy: not shown light: AIVLTQSPSSLSASVGDRVTITCQASQSIYSYLSWYQQKPGKAPKLLIYKASTLASGVPSRFSGSGSGTDFTLTISSLQPEDFATYYCQNHWNVGGNGWPFGGGTKVEIKRTVAAPSVFIFPPSDEQLKSGTASVVCLLNNFYPREAKVQWKVDNALQSGNSQESVTEQDSKDSTYSLSSTLTLSKADYEKHKVYACEVTHQGLSSPVTKSFNRGEC
1.65 nM	no binding (tested: IgG up to 100 nM)	no binding (tested: IgG up to 100 nM)	0.43 nM	0.53 nM	no binding (tested: IgG up to 100 nM)		no binding (tested: IgG up to 100 nM)	1.37 nM				1.31 nM	no binding (tested: IgG up to 100 nM)	4.3 nM		5.42 nM	4.78 nM	0.02 nM	5.09 nM	HLA-G02 (humanised VR12389gL2gH16 IgG1, conventional i.e. fucosylated) (antibody, also called conventional HLA-G02) heavy: not shown light: AIVLTQSPSSLSASVGDRVTITCQASQSIYSYLSWYQQKPGKAPKLLIYKASTLASGVPSRFSGSGSGTDFTLTISSLQPEDFATYYCQNHWNVGGNGWPFGGGTKVEIKRTVAAPSVFIFPPSDEQLKSGTASVVCLLNNFYPREAKVQWKVDNALQSGNSQESVTEQDSKDSTYSLSSTLTLSKADYEKHKVYACEVTHQGLSSPVTKSFNRGEC
